Target: T1, HLA-A*0201 loaded with the Carcinoembryonic antigen (CEA)-derived … peptide (biotin on the C-terminal biotinylation tag)
T1 construct: Soluble, biotinylated, immobilised on a streptavidin chip
Assay: Biacore SPR
Protocol: SPR measures changes in refractive index expressed in response units (RU) near a sensor surface within a small flow cell, a principle that can be used to detect receptor ligand interactions and to analyse their affinity and kinetic parameters. The probe flow cells were prepared by immobilising the pMHC complexes in flow cells via biotin-tag binding. The assay was then performed by passing soluble ILT-like molecule over the surfaces of the different flow cells at a constant flow rate, measuring the SPR response in doing so.

Binder | Kd [nM] | koff [s⁻¹]
SEQ ID NO 72 (receptor, mutated soluble two domain ILT-2) MGHLPKPTLWAEPGSVITQGSPVTLRCQGGQETQEYRLYREKKTAPWITRIPQELVKKGQFPIPSITWEHAGRYRCYYGTQTAGRSESSDPLELVVTGVYIKPTLSAQPSPVVNSGGNVTLQCDSQVAFDGFILCKEGEDEHPQCLNSQPHARGSSRAIFSVGPVSPSRRWWYRCYAYDSNSPYEWSLPSDLLELLVL | ≤ 1000 | ≤ 2
SEQ ID NO 73 (receptor, mutated soluble two domain ILT-2) MGHLPKPTLWAEPGSVITQGSPVTLRCQGGQETQEYRLYREKKTAPWITRIPQELVKKGQFPIPSITWEHAGRYRCMQYTLTAGRSESSDPLELVVTGVYIKPTLSAQPSPVVNSGGNVTLQCDSQVAFDGFILCKEGEDEHPQCLNSQPHARGSSRAIFSVGPVSPSRRWWYRCYAYDSNSPYEWSLPSDLLELLVL | ≤ 1000 | ≤ 2
SEQ ID NO 74 (receptor, mutated soluble two domain ILT-2) MGHLPKPTLWAEPGSVITQGSPVTLRCQGGQETQEYRLYREKKTAPWITRIPQELVKKGQFPIPSITWEHAGRYRCYYGSDTSQWSASSDPLELVVTGVYIKPTLSAQPSPVVNSGGNVTLQCDSQVAFDGFILCKEGEDEHPQCLNSQPHARGSSRAIFSVGPVSPSRRWWYRCYAYDSNSPYEWSLPSDLLELLVL | ≤ 1000 | ≤ 2
SEQ ID NO 75 (receptor, mutated soluble two domain ILT-2) MGHLPKPTLWAEPGSVITQGSPVTLRCQGGQETQEYRLYREKKTAPWITRIPQELVKKGQFPIPSITWEHAGRYRCYYGSQGGLRSESSDPLELVVTGAYIKPTLSAQPSPVVNSGGNVTLQCDSQVAFDGFILCKEGEDEHPQCLNSQPHARGSSRAIFSVGPVSPSRRWWYRCYAYDSNSPYEWSLPSDLLELLVL | ≤ 1000 | ≤ 2
SEQ ID NO 76 (receptor, mutated soluble two domain ILT-2) MGHLPKPTLWAEPGSVITQGSPVTLRCQGGQETQEYRLYREKKTAPWITRIPQELVKKGQFPIPSITWEHAGRYRCYYGTQTAGRSESSDPLELVVTGAYIKPTLSAQPSPVVNSGGNVTLQCDSQVAFDGFILCKEGEDEHPQCLNSQPHARGSSRAIFSVGPVSPSRRWWYRCYAYDSNSPYEWSLPSDLLELLVL | ≤ 1000 | ≤ 2
SEQ ID NO 77 (receptor, mutated soluble two domain ILT-2) MGHLPKPTLWAEPGSVITQGSPVTLRCQGGQETQEYRLYREKKTAPWITRIPQELVKKGQFPIPSITWEHAGRYRCMQYTLTAGRSESSDPLELVVTGAYIKPTLSAQPSPVVNSGGNVTLQCDSQVAFDGFILCKEGEDEHPQCLNSQPHARGSSRAIFSVGPVSPSRRWWYRCYAYDSNSPYEWSLPSDLLELLVL | ≤ 1000 | ≤ 2
SEQ ID NO 78 (receptor, mutated soluble two domain ILT-2) MGHLPKPTLWAEPGSVITMDQPVTLRCQGGQETQEYRLYREKKTAPWITRIPQELVKKGQFPIPSITWEHAGRYRCYYGSQGGLRSESSDPLELVVTGVYIKPTLSAQPSPVVNSGGNVTLQCDSQVAFDGFILCKEGEDEHPQCLNSQPHARGSSRAIFSVGPVSPGRRWWYRCYAYDSNSPYEWSLPSDLLELLVL | ≤ 1000 | ≤ 2
SEQ ID NO 79 (receptor, mutated soluble two domain ILT-2) MGHLPKPTLWAEPGSVITMDQPVTLRCQGGQETQEYRLYREKKTAPWITRIPQELVKKGQFPIPSITWEHAGRYRCYYGTQTAGRSESSDPLELVVTGVYIKPTLSAQPSPVVNSGGNVTLQCDSQVAFDGFILCKEGEDEHPQCLNSQPHARGSSRAIFSVGPVSPGRRWWYRCYAYDSNSPYEWSLPSDLLELLVL | ≤ 1000 | ≤ 2
SEQ ID NO 80 (receptor, mutated soluble two domain ILT-2) MGHLPKPTLWAEPGSVITMDQPVTLRCQGGQETQEYRLYREKKTAPWITRIPQELVKKGQFPIPSITWEHAGRYRCVIQRGTAGRSESSDPLELVVTGVYIKPTLSAQPSPVVNSGGNVTLQCDSQVAFDGFILCKEGEDEHPQCLNSQPHARGSSRAIFSVGPVSPSRRWWYRCYAYDSNSPYEWSLPSDLLELLVL | ≤ 1000 | ≤ 2
SEQ ID NO 81 (receptor, mutated soluble two domain ILT-2) MGHLPKPTLWAEPGSVITMDQPVTLRCQGGQETQEYRLYREKKTAPWITRIPQELVKKGQFPIPSITWEHAGRYRCMQYTLTAGRSESSDPLELVVTGVYIKPTLSAQPSPVVNSGGNVTLQCDSQVAFDGFILCKEGEDEHPQCLNSQPHARGSSRAIFSVGPVSPSRRWWYRCYAYDSNSPYEWSLPSDLLELLVL | ≤ 1000 | ≤ 2
SEQ ID NO 82 (receptor, mutated soluble two domain ILT-2) MGHLPKPTLWAEPGSVITQGSPVTLRCQGGQETQEYRLYREKKTAPWITRIPQELVKKGQFPIPSITWEHAGRYRCYYGSDTAGRSESSDPLELVVTGIYRQPTLSAQPSPVVNSGGNVTLQCDSQVAFDGFILCKEGEDEHPQCLNSQPHARGSSRAIFSVGPVSPSRRWWYRCYAYDSNSPYEWSLPSDLLELLVL | ≤ 1000 | ≤ 2
SEQ ID NO 83 (receptor, mutated soluble two domain ILT-2) MGHLPKPTLWAEPGSVITQGSPVTLRCQGGQETQEYRLYREKKTAPWITRIPQELVKKGQFPIPSITWEHAGRYRCYYGSDTAGRSESSDPLELVVTGIYLAPTLSAQPSPVVNSGGNVTLQCDSQVAFDGFILCKEGEDEHPQCLNSQPHARGSSRAIFSVGPVSPSRRWWYRCYAYDSNSPYEWSLPSDLLELLVL | ≤ 1000 | ≤ 2
SEQ ID NO 84 (receptor, mutated soluble two domain ILT-2) MGHLPKPTLWAEPGSVITQGSPVTLRCQGGQETQEYRLYREKKTAPWITRIPQELVKKGQFPIPSITWEHAGRYRCYYGSDTAGRSESSDPLELVVTGIYKAPTLSAQPSPVVNSGGNVTLQCDSQVAFDGFILCKEGEDEHPQCLNSQPHARGSSRAIFSVGPVSPSRRWWYRCYAYDSNSPYEWSLPSDLLELLVL | ≤ 1000 | ≤ 2
SEQ ID NO 85 (receptor, mutated soluble two domain ILT-2) MGHLPKPTLWAEPGSVITQGSPVTLRCQGGQETQEYRLYREKKTAPWITRIPQELVKKGQFPIPSITWEHAGRYRCYYGSDTAGRSESSDPLELVVTGIYQAPTLSAQPSPVVNSGGNVTLQCDSQVAFDGFILCKEGEDEHPQCLNSQPHARGSSRAIFSVGPVSPSRRWWYRCYAYDSNSPYEWSLPSDLLELLVL | ≤ 1000 | ≤ 2
SEQ ID NO 86 (receptor, mutated soluble two domain ILT-2) MGHLPKPTLWAEPGSVITQGAPVTLRCQGGQETQEYRLYREKKTAPWITRIPQELVKKGQFPIPSITWEHAGRYRCYYGSDTAGRSESSDPLELVVTGVYIKPTLSAQPSPVVNSGGNVTLQCDSQVAFDGFILCKEGEDEHPQCLNSQPHARGSSRAIFSVGPVSPGRRWWYRCYAYDSNSPYEWSLPSDLLELLVL | ≤ 1000 | ≤ 2
SEQ ID NO 87 (receptor, mutated soluble two domain ILT-2) MGHLPKPTLWAEPGSVITQGRPVTLRCQGGQETQEYRLYREKKTAPWITRIPQELVKKGQFPIPSITWEHAGRYRCYYGSDTAGRSESSDPLELVVTGVYIKPTLSAQPSPVVNSGGNVTLQCDSQVAFDGFILCKEGEDEHPQCLNSQPHARGSSRAIFSVGPVSPSRRWWYRCYAYDSNSPYEWSLPSDLLELLVL | ≤ 1000 | ≤ 2
SEQ ID NO 88 (receptor, mutated soluble two domain ILT-2) MGHLPKPTLWAEPGSVITVGQPVTLRCQGGQETQEYRLYREKKTAPWITRIPQELVKKGQFPIPSITWEHAGRYRCYYGSDTAGRSESSDPLELVVTGVYIKPTLSAQPSPVVNSGGNVTLQCDSQVAFDGFILCKEGEDEHPQCLNSQPHARGSSRAIFSVGPVSPGRRWWYRCYAYDSNSPYEWSLPSDLLELLVL | ≤ 1000 | ≤ 2
SEQ ID NO 89 (receptor, mutated soluble two domain ILT-2) MGHLPKPTLWAEPGSVITLGQPVTLRCQGGQETQEYRLYREKKTAPWITRIPQELVKKGQFPIPSITWEHAGRYRCYYGSDTAGRSESSDPLELVVTGVYIKPTLSAQPSPVVNSGGNVTLQCDSQVAFDGFILCKEGEDEHPQCLNSQPHARGSSRAIFSVGPVSPGRRWWYRCYAYDSNSPYEWSLPSDLLELLVL | ≤ 1000 | ≤ 2
SEQ ID NO 90 (receptor, mutated soluble two domain ILT-2) MGHLPKPTLWAEPGSVITQGSPVTLRCQGGQETQEYRLYREKKTAPWITRIPQELVKKGQFPIPSITWEHAGRYRCYYGSDTAGRSESSDPLELVVTGVYIKPTLSAQPSPVVNSGGNVTLQCDSQVAFDGFILCKEGEDEHPQCLNSQPHARGSSRAIFSVGPVSPGRRWWYRCYAYDSNSPYEWSLPSDLLELLVL | ≤ 1000 | ≤ 2
SEQ ID NO 91 (receptor, mutated soluble two domain ILT-2) MGHLPKPTLWAEPGSVITQGSPVTLRCQGGQETQEYRLYREKKTAPWITRIPQELVKKGQFPIPSVTWEHAGRYRCYYGSDTAGRSESSDPLELVVTGVYIKPTLSAQPSPVVNSGGNVTLQCDSQVAFDGFILCKEGEDEHPQCLNSQPHARGSSRAIFSVGPVSPSRRWWYRCYAYDSNSPYEWSLPSDLLELLVL | ≤ 1000 | ≤ 2
SEQ ID NO 92 (receptor, mutated soluble two domain ILT-2) MGHLPKPTLWAEPGSVITQGSPVTLRCQGGQETQEYRLYREKKTAPWITRIPQELVKKGQFPIPSITWEHAGRYRCVGWAVTAGRSESSDPLELVVTGVYIKPTLSAQPSPVVNSGGNVTLQCDSQVAFDGFILCKEGEDEHPQCLNSQPHARGSSRAIFSVGPVSPSRRWWYRCYAYDSNSPYEWSLPSDLLELLVL | ≤ 1000 | ≤ 2
SEQ ID NO 94 (receptor, mutated soluble two domain ILT-2) MGHLPKPTLWAEPGSVITQGSPVTLRCQGGQETQEYRLYREKKTAPWITRIPQELVKKGQFPIPSITWEHAGRYRCYYGGQEGARSESSDPLELVVTGVYIKPTLSAQPSPVVNSGGNVTLQCDSQVAFDGFILCKEGEDEHPQCLNSQPHARGSSRAIFSVGPVSPSRRWWYRCYAYDSNSPYEWSLPSDLLELLVL | ≤ 1000 | ≤ 2
